The results in this text go back to IntAct's records for PubMed 16782870.

To fix the notation:
B1: Proliferating cell nuclear antigen (Saccharomyces cerevisiae), P15873 (parent)
chain: MLEAKFEEASLFKRIIDGFKDCVQLVNFQCKEDGIIAQAVDDSRVLLVSLEIGVEAFQEYRCDHPVTLGMDLTSLSKILRCGNNTDTLTLIADNTPDSIILLFEDTKKDRIAEYSLKLMDIDADFLKIEELQYDSTLSLPSSEFSKIVRDLSQLSDSINIMITKETIKFVADGDIGSGSVIIKPFVDMEHPETSIKLEMDQPVDLTFGAKYLLDIIKGSSLSDRVGIRLSSEAPALFQFDLKSGFLQFFLAPKFNDEE
B2: Minichromosome maintenance protein 10 (Saccharomyces cerevisiae), P32354 (parent)
chain: MNDPREILAVDPYNNITSDEEDEQAIARELEFMERKRQALVERLKRKQEFKKPQDPNFEAIEVPQSPTKNRVKVGSHNATQQGTKFEGSNINEVRLSQLQQQPKPPASTTTYFMEKFQNAKKNEDKQIAKFESMMNARVHTFSTDEKKYVPIITNELESFSNLWVKKRYIPEDDLKRALHEIKILRLGKLFAKIRPPKFQEPEYANWATVGLISHKSDIKFTSSEKPVKFFMFTITDFQHTLDVYIFGKKGVERYYNLRLGDVIAILNPEVLPWRPSGRGNFIKSFNLRISHDFKCILEIGSSRDLGWCPIVNKKTHKKCGSPINISLHKCCDYHREVQFRGTSAKRIELNGGYALGAPTKVDSQPSLYKAKGENGFNIIKGTRKRLSEEEERLKKSSHNFTNSNSAKAFFDEKFQNPDMLANLDNKRRKIIETKKSTALSRELGKIMRRRESSGLEDKSVGERQKMKRTTESALQTGLIQRLGFDPTHGKISQVLKSSVSGSEPKNNLLGKKKTVINDLLHYKKEKVILAPSKNEWFKKRSHREEVWQKHFGSKETKETSDGSASDLEII
B3: Proliferating cell nuclear antigen (Saccharomyces cerevisiae), P15873 (parent)
chain: B1 chain
partner: B2 chain

The variants in one assay derive from B1. The note with it: with dpod3_yeast POL32, P47110.
Chain of dpod3_yeast POL32, P47110 (P47110 whole entry): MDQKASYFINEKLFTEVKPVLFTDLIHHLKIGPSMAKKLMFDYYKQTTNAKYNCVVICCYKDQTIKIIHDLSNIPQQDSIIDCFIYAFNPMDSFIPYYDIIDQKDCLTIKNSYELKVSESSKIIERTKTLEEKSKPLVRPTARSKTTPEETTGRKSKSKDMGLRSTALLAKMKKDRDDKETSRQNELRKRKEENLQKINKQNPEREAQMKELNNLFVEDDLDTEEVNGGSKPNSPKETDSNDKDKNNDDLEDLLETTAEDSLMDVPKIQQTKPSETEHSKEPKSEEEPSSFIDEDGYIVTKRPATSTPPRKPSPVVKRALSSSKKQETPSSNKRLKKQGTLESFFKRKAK
Turning to MLEAKFEEASLFKRIIDGFKDCVQLVNFQCKEDGIIAQAVDDSRVLLVSLEIGVEAFQEYRCDHPVTLGMDLTSLSKILRCGNNTDTLTLIADNTPDSIILLFEDTKKDRIAEYSLKLMDIDADFLKIEELQYDSTLSLPSSEFSKIVRDLSQLSDSINIMITKETIKFVADGDIGSGSVIIKPFVDMEHPETSIKLEMDQPVDLTFGAKYLLDIIKGSSLSDRVGIRLSSEAPALFQFDLKSGFLQFFLVPKFNDEE [A251V], the “effect of a mutation on the interaction” value is “decreasing interaction”. Still for that read-out and setting: with MLEAKFEEASLFKRIIDGFKDCVQLVNFQCKEDGIIAQAVDDSRVLLVSLEIGVEAFQEYRCDHPVTLGMDLTSLSKILRCGNNTDTLTLIADNTPDSIILLFEDTKKDRIAEYSLKLMDIDADFLKIEELQLDSTLSLPSSEFSKIVRDLSQLSDSINIMITKETIKFVADGDIGSGSVIIKPFVDMEHPETSIKLEMDQPVDLTFGAKYLLDIIKGSSLSDRVGIRLSSEAPALFQFDLKSGFLQFFLAPKFNDEE [Y133L] the entry was “decreasing interaction”. Still for that read-out and setting: under MLEAKFEEASLFKRIIDGFKDCVQLVNFQCKEDGIIAQAVDDSRVLLVSLEIGVEAFQEYRCDHPVTLGMDLTSLSKILRCGNNTDTLTLIADNTPDSIILLFEDTKKDRIAEYSLKLMDIDADFLKIEELQADSTLSLPSSEFSKIVRDLSQLSDSINIMITKETIKFVADGDIGSGSVIIKPFVDMEHPETSIKLEMDQPVDLTFGAKYLLDIIKGSSLSDRVGIRLSSEAPALFQFDLKSGFLQFFLAPKFNDEE [Y133A] stands “decreasing interaction”.

Variants of B2 are the subject of another assay. The note with it: with pcna_yeast POL30, P15873.
With MNDPREILAVDPYNNITSDEEDEQAIARELEFMERKRQALVERLKRKQEFKKPQDPNFEAIEVPQSPTKNRVKVGSHNATQQGTKFEGSNINEVRLSQLQQQPKPPASTTTYFMEKFQNAKKNEDKQIAKFESMMNARVHTFSTDEKKYVPIITNELESFSNLWVKKRYIPEDDLKRALHEIKILRLGKLFAKIRPPKFQEPEYANWATVGLISHKSDIKFTSSEKPVKFFMFTITDFQHTLDVAIFGKKGVERYYNLRLGDVIAILNPEVLPWRPSGRGNFIKSFNLRISHDFKCILEIGSSRDLGWCPIVNKKTHKKCGSPINISLHKCCDYHREVQFRGTSAKRIELNGGYALGAPTKVDSQPSLYKAKGENGFNIIKGTRKRLSEEEERLKKSSHNFTNSNSAKAFFDEKFQNPDMLANLDNKRRKIIETKKSTALSRELGKIMRRRESSGLEDKSVGERQKMKRTTESALQTGLIQRLGFDPTHGKISQVLKSSVSGSEPKNNLLGKKKTVINDLLHYKKEKVILAPSKNEWFKKRSHREEVWQKHFGSKETKETSDGSASDLEII [Y245A], the “effect of a mutation on the interaction” value is “disrupting interaction”. For MNDPREILAVDPYNNITSDEEDEQAIARELEFMERKRQALVERLKRKQEFKKPQDPNFEAIEVPQSPTKNRVKVGSHNATQQGTKFEGSNINEVRLSQLQQQPKPPASTTTYFMEKFQNAKKNEDKQIAKFESMMNARVHTFSTDEKKYVPIITNELESFSNLWVKKRYIPEDDLKRALHEIKILRLGKLFAKIRPPKFQEPEYANWATVGLISHKSDIKFTSSEKPVKFFMFTITDFQHTADVYIFGKKGVERYYNLRLGDVIAILNPEVLPWRPSGRGNFIKSFNLRISHDFKCILEIGSSRDLGWCPIVNKKTHKKCGSPINISLHKCCDYHREVQFRGTSAKRIELNGGYALGAPTKVDSQPSLYKAKGENGFNIIKGTRKRLSEEEERLKKSSHNFTNSNSAKAFFDEKFQNPDMLANLDNKRRKIIETKKSTALSRELGKIMRRRESSGLEDKSVGERQKMKRTTESALQTGLIQRLGFDPTHGKISQVLKSSVSGSEPKNNLLGKKKTVINDLLHYKKEKVILAPSKNEWFKKRSHREEVWQKHFGSKETKETSDGSASDLEII [L242A], the “effect of a mutation on the interaction” value is on record as “disrupting interaction”. Still for that read-out and setting: with MNDPREILAVDPYNNITSDEEDEQAIARELEFMERKRQALVERLKRKQEFKKPQDPNFEAIEVPQSPTKNRVKVGSHNATQQGTKFEGSNINEVRLSQLQQQPKPPASTTTYFMEKFQNAKKNEDKQIAKFESMMNARVHTFSTDEKKYVPIITNELESFSNLWVKKRYIPEDDLKRALHEIKILRLGKLFAKIRPPKFQEPEYANWATVGLISHKSDIKFTSSEKPVKFFMFTITDFQHTYDVYIFGKKGVERYYNLRLGDVIAILNPEVLPWRPSGRGNFIKSFNLRISHDFKCILEIGSSRDLGWCPIVNKKTHKKCGSPINISLHKCCDYHREVQFRGTSAKRIELNGGYALGAPTKVDSQPSLYKAKGENGFNIIKGTRKRLSEEEERLKKSSHNFTNSNSAKAFFDEKFQNPDMLANLDNKRRKIIETKKSTALSRELGKIMRRRESSGLEDKSVGERQKMKRTTESALQTGLIQRLGFDPTHGKISQVLKSSVSGSEPKNNLLGKKKTVINDLLHYKKEKVILAPSKNEWFKKRSHREEVWQKHFGSKETKETSDGSASDLEII [L242Y] the entry was “decreasing interaction”.

Variants of B3 are the subject of the next assay. To be noted: with mcm10_yeast MCM10, P32354.
With MLEAKFEEASLFKRIIDGFKDCVQLVNFQCKEDGIIAQAVDDSRVLLVSLEIGVEAFQEYRCDHPVTLGMDLTSLSKILRCGNNTDTLTLIADNTPDSIILLFEDTKKDRIAEYSLKLMDIDADFLKIEELQADSTLSLPSSEFSKIVRDLSQLSDSINIMITKETIKFVADGDIGSGSVIIKPFVDMEHPETSIKLEMDQPVDLTFGAKYLLDIIKGSSLSDRVGIRLSSEAPALFQFDLKSGFLQFFLAPKFNDEE [Y133A], the “effect of a mutation on the interaction” value was “decreasing interaction”. With MLEAKFEEASLFKRIIDGFKDCVQLVNFQCKEDGIIAQAVDDSRVLLVSLEIGVEAFQEYRCDHPVTLGMDLTSLSKILRCGNNTDTLTLIADNTPDSIILLFEDTKKDRIAEYSLKLMDIDADFLKIEELQYDSTLSLPSSEFSKIVRDLSQLSDSINIMITKETIKFVADGDIGSGSVIIKPFVDMEHPETSIKLEMDQPVDLTFGAKYLLDIIKGSSLSDRVGIRLSSEAPALFQFDLKSGFLQFFLVPKFNDEE [A251V], the “effect of a mutation on the interaction” value was “disrupting interaction”.
